{"source": "the supplement of paper PMC9112550", "about": "“Optimization of the antimicrobial peptide Bac7 by deep mutational scanning” (BMC Biology, 2022);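 also: peptides expressed intracellularly from a pBAD plasmid library in pooled LB shake-flask culture, induced with 0.3% L-arabinose, DNA abundance read by NGS, three biological replicates, DESeq2 with apeglm shrinkage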"}
{"system": "Escherichia coli TOP10", "test": "shrunken log2 fold change of peptide-encoding DNA abundance (4.5 h post-induction vs induction); higher = less antimicrobial activity (less host growth inhibition)", "conditions": "time post-induction: 4.5 h; library: site-saturation at positions 5, 18, 19, 20"}
{"sequence": "RRIRPRPPRLPRPRPRPNNLPRP", "shrunken log2 fold change": -0.181}
{"sequence": "RRIRMRPPRLPRPRPRPCAQPRP", "shrunken log2 fold change": -0.0823}
{"sequence": "RRIRYRPPRLPRPRPRPVLYPRP", "shrunken log2 fold change": -0.0955}
{"sequence": "RRIRNRPPRLPRPRPRPYGQPRP", "shrunken log2 fold change": -0.124}
{"sequence": "RRIRDRPPRLPRPRPRPMWPPRP", "shrunken log2 fold change": 0.316}
{"sequence": "RRIRQRPPRLPRPRPRPNRMPRP", "shrunken log2 fold change": 0.00219}
{"sequence": "RRIRTRPPRLPRPRPRPWSMPRP", "shrunken log2 fold change": -0.36}
{"sequence": "RRIRMRPPRLPRPRPRPMYWPRP", "shrunken log2 fold change": -0.169}
{"sequence": "RRIRYRPPRLPRPRPRPPRCPRP", "shrunken log2 fold change": -0.0545}
{"sequence": "RRIRWRPPRLPRPRPRPMSDPRP", "shrunken log2 fold change": 0.0237}
{"sequence": "RRIRFRPPRLPRPRPRPFKAPRP", "shrunken log2 fold change": -0.11}
{"sequence": "RRIRDRPPRLPRPRPRPNKNPRP", "shrunken log2 fold change": -0.343}
{"sequence": "RRIRMRPPRLPRPRPRPFVWPRP", "shrunken log2 fold change": 0.246}
{"sequence": "RRIRVRPPRLPRPRPRPEGTPRP", "shrunken log2 fold change": -0.00568}
{"sequence": "RRIRCRPPRLPRPRPRPHTFPRP", "shrunken log2 fold change": -0.467}
{"sequence": "RRIRDRPPRLPRPRPRPRIQPRP", "shrunken log2 fold change": -0.0934}
{"sequence": "RRIRERPPRLPRPRPRPYAFPRP", "shrunken log2 fold change": -0.961}
{"sequence": "RRIRHRPPRLPRPRPRPTHAPRP", "shrunken log2 fold change": 0.233}
{"sequence": "RRIRTRPPRLPRPRPRPTKNPRP", "shrunken log2 fold change": -0.083}
{"sequence": "RRIRKRPPRLPRPRPRPGIPPRP", "shrunken log2 fold change": -0.0948}
{"sequence": "RRIRARPPRLPRPRPRPWCSPRP", "shrunken log2 fold change": -0.155}
{"sequence": "RRIRSRPPRLPRPRPRPSGKPRP", "shrunken log2 fold change": -0.202}
{"sequence": "RRIRVRPPRLPRPRPRPDIVPRP", "shrunken log2 fold change": -0.229}
{"sequence": "RRIRWRPPRLPRPRPRPIHMPRP", "shrunken log2 fold change": -0.246}
{"sequence": "RRIRARPPRLPRPRPRPKIIPRP", "shrunken log2 fold change": -0.287}
{"sequence": "RRIRGRPPRLPRPRPRPSCTPRP", "shrunken log2 fold change": 0.565}
{"sequence": "RRIRWRPPRLPRPRPRPKEVPRP", "shrunken log2 fold change": 0.0717}
{"sequence": "RRIRCRPPRLPRPRPRPCNEPRP", "shrunken log2 fold change": -0.514}
{"sequence": "RRIRERPPRLPRPRPRPLALPRP", "shrunken log2 fold change": -0.265}
{"sequence": "RRIRCRPPRLPRPRPRPLHPPRP", "shrunken log2 fold change": 0.199}
{"sequence": "RRIRIRPPRLPRPRPRPMNWPRP", "shrunken log2 fold change": -0.135}
{"sequence": "RRIRCRPPRLPRPRPRPVMVPRP", "shrunken log2 fold change": -0.211}
{"sequence": "RRIRIRPPRLPRPRPRPQLMPRP", "shrunken log2 fold change": -0.442}
{"sequence": "RRIRCRPPRLPRPRPRPTLFPRP", "shrunken log2 fold change": 0.196}
{"sequence": "RRIRKRPPRLPRPRPRPCNHPRP", "shrunken log2 fold change": -0.16}
{"sequence": "RRIRKRPPRLPRPRPRPETAPRP", "shrunken log2 fold change": 1.21}
{"sequence": "RRIRIRPPRLPRPRPRPHGLPRP", "shrunken log2 fold change": -0.00134}
{"sequence": "RRIRTRPPRLPRPRPRPMFWPRP", "shrunken log2 fold change": 0.285}
{"sequence": "RRIRKRPPRLPRPRPRPPSFPRP", "shrunken log2 fold change": 0.288}
{"sequence": "RRIRLRPPRLPRPRPRPFYNPRP", "shrunken log2 fold change": -0.584}
{"sequence": "RRIRSRPPRLPRPRPRPQCKPRP", "shrunken log2 fold change": 0.0936}
{"sequence": "RRIRGRPPRLPRPRPRPDGSPRP", "shrunken log2 fold change": 0.85}
{"sequence": "RRIRKRPPRLPRPRPRPPDEPRP", "shrunken log2 fold change": 1.89}
{"sequence": "RRIRFRPPRLPRPRPRPCCGPRP", "shrunken log2 fold change": -0.221}
{"sequence": "RRIRERPPRLPRPRPRPWDTPRP", "shrunken log2 fold change": -0.623}
{"sequence": "RRIRSRPPRLPRPRPRPRGFPRP", "shrunken log2 fold change": 0.82}
{"sequence": "RRIRMRPPRLPRPRPRPGRHPRP", "shrunken log2 fold change": 0.441}
{"sequence": "RRIRWRPPRLPRPRPRPRDSPRP", "shrunken log2 fold change": -0.299}
{"sequence": "RRIRKRPPRLPRPRPRPKQYPRP", "shrunken log2 fold change": -0.222}
{"sequence": "RRIRCRPPRLPRPRPRPPSYPRP", "shrunken log2 fold change": -0.457}
{"sequence": "RRIRARPPRLPRPRPRPYWNPRP", "shrunken log2 fold change": -0.566}
{"sequence": "RRIRYRPPRLPRPRPRPYRRPRP", "shrunken log2 fold change": -0.00141}
{"sequence": "RRIRARPPRLPRPRPRPLNQPRP", "shrunken log2 fold change": -0.0348}
{"sequence": "RRIRSRPPRLPRPRPRPIQSPRP", "shrunken log2 fold change": -0.0288}
{"sequence": "RRIRDRPPRLPRPRPRPIYYPRP", "shrunken log2 fold change": -0.253}
{"sequence": "RRIRLRPPRLPRPRPRPHPMPRP", "shrunken log2 fold change": -0.173}
{"sequence": "RRIRSRPPRLPRPRPRPMYAPRP", "shrunken log2 fold change": -0.29}
{"sequence": "RRIRMRPPRLPRPRPRPDINPRP", "shrunken log2 fold change": 3.07}
{"sequence": "RRIRQRPPRLPRPRPRPKKGPRP", "shrunken log2 fold change": 0.124}
{"sequence": "RRIRMRPPRLPRPRPRPGRLPRP", "shrunken log2 fold change": 0.411}
{"sequence": "RRIRCRPPRLPRPRPRPVRSPRP", "shrunken log2 fold change": 0.549}
{"sequence": "RRIRQRPPRLPRPRPRPGNQPRP", "shrunken log2 fold change": 0.0157}
{"sequence": "RRIRHRPPRLPRPRPRPISDPRP", "shrunken log2 fold change": -0.179}
{"sequence": "RRIRARPPRLPRPRPRPTGSPRP", "shrunken log2 fold change": 0.841}
{"sequence": "RRIRQRPPRLPRPRPRPAVKPRP", "shrunken log2 fold change": -0.00195}
{"sequence": "RRIRGRPPRLPRPRPRPKNPPRP", "shrunken log2 fold change": 0.489}
{"sequence": "RRIRDRPPRLPRPRPRPSEWPRP", "shrunken log2 fold change": -0.0637}
{"sequence": "RRIRDRPPRLPRPRPRPKHKPRP", "shrunken log2 fold change": -0.173}
{"sequence": "RRIRPRPPRLPRPRPRPFSPPRP", "shrunken log2 fold change": -0.266}
{"sequence": "RRIRQRPPRLPRPRPRPDGPPRP", "shrunken log2 fold change": 0.0029}
{"sequence": "RRIRMRPPRLPRPRPRPSYPPRP", "shrunken log2 fold change": -0.412}
{"sequence": "RRIRGRPPRLPRPRPRPVKRPRP", "shrunken log2 fold change": 0.248}
{"sequence": "RRIRERPPRLPRPRPRPQKFPRP", "shrunken log2 fold change": -0.259}
{"sequence": "RRIRIRPPRLPRPRPRPNKNPRP", "shrunken log2 fold change": -0.701}
{"sequence": "RRIRARPPRLPRPRPRPGMWPRP", "shrunken log2 fold change": 0.485}
